In the supplement of paper PMC10126150:
± gives the standard deviation of the averaged measurements.

Test system: ATP
Assay: switch fluorescence ratio, 500 uM ATP over buffer (Cy3 cluster intensity, sum of 5 cycles each) (fold (ratio)); higher = stronger signal-on switching upon ATP binding; sequences stand for … in TCGTCGGCAGCGTCAGATGTGTATAAGAGACAGTTTTTTTTTTTTTTTTTTTTTTTTT…TC
Settings: aptamer strand: ATP DNA aptamer (quencher-CACCTGGGGGAGTATTGCGGAGGAAGG + anchor), 100 nM annealed; ATP concentration: 500 uM
In short: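 Clusters carrying Cy3-labelled switching strands on a modified Illumina MiSeq flow-cell were annealed to 100 nM quencher-labelled ATP aptamer and imaged in selection buffer. They were imaged again after 15 min with 500 uM ATP at 22 °C, over five buffer/ATP cycles with NaOH stripping and re-annealing in between. For each cluster, the fluorescence ratio is the summed Cy3 intensity of the target cycles divided by that of the buffer cycles, averaged per switch-domain sequence. Clusters outside 100-1000 RFU were left out.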
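Further: ATP exposure 15 min at 22 °C before imaging.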

TATGTGGGAT
switch fluorescence ratio: 0.9734 ± 0.0016

TATAGCAGTT
switch fluorescence ratio: 1.01 ± 0.013

GGGGTATGTC
switch fluorescence ratio: 1.02 ± 0.053

TGGCTCCCGC
switch fluorescence ratio: 1.089 ± 0.0041

TGGTAGTTTG
switch fluorescence ratio: 0.9951 ± 0.0039

CGAAAGAGAG
switch fluorescence ratio: 0.9911 ± 0.0022

ATTCAACGGT
switch fluorescence ratio: 1.02 ± 0.0048

TACAAGGGTA
switch fluorescence ratio: 1.01 ± 0.06

GCCGGGTCCG
switch fluorescence ratio: 0.9938 ± 0.0011

TTTAAGAAGT
switch fluorescence ratio: 1 ± 0.027

CGCATTAAAA
switch fluorescence ratio: 0.969 ± 0.024

TTTGGCCTAC
switch fluorescence ratio: 1.01 ± 0.02

TGGGACGGTC
switch fluorescence ratio: 1.1 ± 0.051

AAGGGGGTAC
switch fluorescence ratio: 1.38 ± 0.77

TCATATTCTA
switch fluorescence ratio: 0.9849 ± 0.0019

CTAAAATGCT
switch fluorescence ratio: 1.042 ± 0.0088

TACTATGGGC
switch fluorescence ratio: 1.03 ± 0.055

TTCTAAGGAG
switch fluorescence ratio: 1.017 ± 0.0022

GAGTTCCTGT
switch fluorescence ratio: 1.01 ± 0.014

GGATCACTTA
switch fluorescence ratio: 1.02 ± 0.023

TGAAGTTTTT
switch fluorescence ratio: 1.02 ± 0.064

CCAATAGACG
switch fluorescence ratio: 1.01 ± 0.03

TTTCTCTACG
switch fluorescence ratio: 1.015 ± 0.0056

TTTTCTTTAA
switch fluorescence ratio: 0.9798 ± 0.0051

GGTGATAATG
switch fluorescence ratio: 0.982 ± 0.031

CGCGTTAGA
switch fluorescence ratio: 1.04 ± 0.017

TGCCTTATGG
switch fluorescence ratio: 0.983 ± 0.045

TTTGGGGGG
switch fluorescence ratio: 1.05 ± 0.046

TAAAATGAGA
switch fluorescence ratio: 0.98 ± 0.031

TTGTTA
switch fluorescence ratio: 0.964 ± 0.044

CAATGCACGG
switch fluorescence ratio: 1.07 ± 0.0098

TAAGGTAAAA
switch fluorescence ratio: 1.001 ± 0.0041

TATAGCTTTT
switch fluorescence ratio: 0.9869 ± 0.0031

GAGCTTGCTG
switch fluorescence ratio: 0.9992 ± 0.0083

TTGATCAACG
switch fluorescence ratio: 0.995 ± 0.014

TTTTCGATGG
switch fluorescence ratio: 1.01 ± 0.016

TCGGAGTGCG
switch fluorescence ratio: 1.006 ± 0.0062

AAGTTTTGGG
switch fluorescence ratio: 0.974 ± 0.02

TCTTCGGCGA
switch fluorescence ratio: 1.46 ± 0.16

AACGCAGGAG
switch fluorescence ratio: 1.48 ± 0.025

TCACGCCTTT
switch fluorescence ratio: 1.05 ± 0.033

GGGGGGGACC
switch fluorescence ratio: 0.999 ± 0.017

TTCGTACCGC
switch fluorescence ratio: 1.09 ± 0.029

GTTACTTGCT
switch fluorescence ratio: 1.01 ± 0.059

GCTTTTGTTT
switch fluorescence ratio: 1.04 ± 0.013

TTAGGAAAGT
switch fluorescence ratio: 0.9873 ± 0.0075

TTTAGCCCAG
switch fluorescence ratio: 1.013 ± 0.0024

AAAATGATAG
switch fluorescence ratio: 1.06 ± 0.072

GTTTACGGGC
switch fluorescence ratio: 1.03 ± 0.027

AGGAGGATCG
switch fluorescence ratio: 0.97 ± 0.079

CGGGAGGGGA
switch fluorescence ratio: 1 ± 0.025

TGGGGTGCTC
switch fluorescence ratio: 0.998 ± 0.056

CGTTAATTCG
switch fluorescence ratio: 1 ± 0.028

CCAGGTTTCA
switch fluorescence ratio: 1.03 ± 0.046

CGATTTGAGG
switch fluorescence ratio: 0.9967 ± 0.0079

ATACCTAGCT
switch fluorescence ratio: 1.05 ± 0.019

ATAGATTGTT
switch fluorescence ratio: 1.39 ± 0.59

TTTAATTAAG
switch fluorescence ratio: 0.985 ± 0.055

GGGGGGATCC
switch fluorescence ratio: 0.996 ± 0.044

TATTGCCGGG
switch fluorescence ratio: 0.985 ± 0.036

ATGCGCACGG
switch fluorescence ratio: 1.064 ± 0.009

ATTATTTTAC
switch fluorescence ratio: 0.976 ± 0.036

TTTTCACCGT
switch fluorescence ratio: 1.06 ± 0.027

ATTTCGATGT
switch fluorescence ratio: 1.03 ± 0.031

AATCATTGTT
switch fluorescence ratio: 1.02 ± 0.026

TTGGCGTCCG
switch fluorescence ratio: 0.988 ± 0.047

TCCAAGTGTG
switch fluorescence ratio: 1.03 ± 0.021

TTAAGGGCAA
switch fluorescence ratio: 1.06 ± 0.013

TTTTAGTCAT
switch fluorescence ratio: 1.01 ± 0.014

CAGTTTACGT
switch fluorescence ratio: 0.983 ± 0.023

CTTGTAAGAA
switch fluorescence ratio: 1.02 ± 0.05

CAAAAGGGCC
switch fluorescence ratio: 1.021 ± 0.0042

GTAGGCCATG
switch fluorescence ratio: 1 ± 0.022

AGGCTCATTG
switch fluorescence ratio: 1.01 ± 0.033

CTCTAAGT
switch fluorescence ratio: 1.01 ± 0.017

ATTTAATCGC
switch fluorescence ratio: 1.01 ± 0.011

GAGATGTTTT
switch fluorescence ratio: 0.988 ± 0.043

AAGCTTTTGT
switch fluorescence ratio: 0.9849 ± 0.0084

TGGGAGCAGG
switch fluorescence ratio: 1.05 ± 0.079

CGGGGTTGCC
switch fluorescence ratio: 0.955 ± 0.022

TATCGAGTCG
switch fluorescence ratio: 0.997 ± 0.034

GTGCTAAGAG
switch fluorescence ratio: 0.969 ± 0.043

GCTGGGGGGT
switch fluorescence ratio: 1 ± 0.044

ACAAGTGCGG
switch fluorescence ratio: 1.05 ± 0.024

GGGGGATGAT
switch fluorescence ratio: 0.9889 ± 0.007

CGGGATGTAG
switch fluorescence ratio: 0.987 ± 0.026

GGAACGGGGA
switch fluorescence ratio: 1.01 ± 0.017

TAATTTTTTG
switch fluorescence ratio: 0.997 ± 0.021

ATATGCATGG
switch fluorescence ratio: 0.969 ± 0.014

TTATTCAAGG
switch fluorescence ratio: 0.99 ± 0.017

AGCTATAAGG
switch fluorescence ratio: 0.982 ± 0.021

TTTTGCAGCC
switch fluorescence ratio: 0.976 ± 0.02

CCTGCTGTCC
switch fluorescence ratio: 1.16 ± 0.051

TGGGGGCGTG
switch fluorescence ratio: 0.9502 ± 0.00056

CCACGGACAA
switch fluorescence ratio: 1.645 ± 0.0082

ATTAGCGAGA
switch fluorescence ratio: 1.028 ± 0.0035

GGGGAGGTAG
switch fluorescence ratio: 0.985 ± 0.014

ACTGTAATTT
switch fluorescence ratio: 1.18 ± 0.027

TAGGACTCAT
switch fluorescence ratio: 1.009 ± 0.0082

GGCCTACCGC
switch fluorescence ratio: 1.13 ± 0.036
